The source of these data is article PMC4822050, “Hemi-methylated DNA opens a closed conformation of UHRF1 to facilitate its histone recognition” (Nature Communications, 2016).

B1: Spacer of UHRF1 (residues 587–674) [human] / TTD of UHRF1 (residues 134–285) [human] (parent)
chain 1: PGPWTKEGKDRIKKLGLTMQYPEGYLEALANREREKENSKREEEEQQEGGFASPRTGKGKWKRKSAGGGPSRAGSPRRTSKKTKVEPY
chain 2: LYKVNEYVDARDTNMGAWFEAQVVRVTRKAPSRDEPCSSTSRPALEEDVIYHVKYDDYPENGVVQMNSRDVRARARTIIKWQDLEVGQVVMLNYNPDNPKERGFWYDAEISRKRETRTARELYANVVLGDDSLNDCRIIFVDEVFKIERPGE

In the assay the parent is B1. Nature of the assay: ITC. The conditions noted are these: with TTD of UHRF1 (residues 134–285) [human]; Cell: Spacer; Sy: TTD.
Usually Kd stands for the concentration at which binding is half-saturated. As for chain 1 PGPWTKEGKDRIKKLGLTMQYPEGYLEALANREREKENSKREEEEQQEGGFASPRTGKGKWKRKSAGGGPSRAGSPRRTDKKTKVEPY, the Kd was determined as 1.26 µM. As for chain 1 PGPWTKEGKDRIKKLGLTMQYPEGYLEALANREREKENSKREEEEQQEGGFADPRTGKGKWKRKSAGGGPSRAGSPRRTSKKTKVEPY, the figure is 1.15 µM. In the case of chain 1 PGPWTKEGKDRIKKLGLTMQYPEGYLEALANREREKENSKREEEEQQEGGFASPRTGKGKWDRKSAGGGPSRAGSPRRTSKKTKVEPY, the Kd worked out at 5.94 µM. Then chain 1 PGPWTKEGKDRIKKLGLTMQYPEGYLEALANREREKENSKREEEEQQEGGFASPRTGKGKWKAKSAGGGPSRAGSPRRTSKKTKVEPY, with 21.4 µM.
